Publication PMC5476676

Molecular target: Protein L (UniProt Q51918)
Test: BLI

In the case of “Trastuzumab wild-type (recombinant Trastuzumab model) (antibody)”, the koff is reported as 1.2e-05 s⁻¹.
